For orientation: EC50 means the concentration at which the effect is half-maximal.

Data on 2 molecules can be found in US20260116971A1 (published 2026).

The target in assay [1] is T1, cynomolgus (Cyno) monkey (Macaca fascicularis) Nectin-2 (cynomolgus monkey (Macaca fascicularis), UniProt A0A2K5U084 32-538).
T1 chain: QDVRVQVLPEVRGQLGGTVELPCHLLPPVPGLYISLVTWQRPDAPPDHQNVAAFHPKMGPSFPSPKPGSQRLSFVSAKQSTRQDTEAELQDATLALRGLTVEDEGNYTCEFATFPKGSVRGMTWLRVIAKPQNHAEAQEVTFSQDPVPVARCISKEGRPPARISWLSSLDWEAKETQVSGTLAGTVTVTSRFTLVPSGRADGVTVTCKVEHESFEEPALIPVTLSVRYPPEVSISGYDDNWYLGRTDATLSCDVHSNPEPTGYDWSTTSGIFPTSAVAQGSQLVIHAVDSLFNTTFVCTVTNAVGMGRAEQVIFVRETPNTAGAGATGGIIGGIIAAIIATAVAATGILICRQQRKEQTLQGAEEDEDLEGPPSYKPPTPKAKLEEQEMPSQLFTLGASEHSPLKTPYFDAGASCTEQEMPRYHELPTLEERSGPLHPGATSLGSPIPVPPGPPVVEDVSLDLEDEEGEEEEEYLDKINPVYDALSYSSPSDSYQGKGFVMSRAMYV
Put plainly: FACS binding; CHO cells expressing cyno Nectin-2.

The target in assay [2] is T2, Chlorocebus (African green monkey) Nectin-2 (Chlorocebus (African green monkey)).
T2 chain: T1 chain with D47N, Q70E, R82G, V481I
Put plainly: FACS binding; Vero cells. (In general: Flow cytometry measures light scatter and fluorescence of single cells or particles in a stream.)

Where a chain is given by its changes, count along the chain named.

B1: anti-Nectin-2 monoclonal antibody clone 11 (antibody, V domains shown)
VH: EVQLQQSGTVLTRPGASVKMSCKASGYIFTSYWIHWVKQRPGQGLEWIGAVYPGNSDSNYNQKFKAKAKLTAVTSTSTAYMELSSLTSEDSAVYYCTKLVGTFDYWGQGTTLTVSS
VL: DIVMTQSQKFMSSSIGDRVSVTCKASQNVGINVVWYQQRAGQSPKTLIYSASYRYSGVPDRFTGSGSGTDFTLTISNVQSEDLAEYFCQQYNTNPFTFGSGTKLEIK
As for B1, the EC50 amounted to 0.2 nM in assay [1] and 0.16 nM in assay [2].

B2: anti-Nectin-2 monoclonal antibody clone 7 (antibody, V domains shown)
VH: DVNLVESGGGLVKPGGSLKLSCAASGFTFSRFTMSWVRQTPEKTLDWVATISSGGSYTYYPDSVKGRFTISRDNAKNTLYLQMSSLKSEDTAMYYCTRDRDFYGPYYAMDYWGQGTSVTVSS
VL: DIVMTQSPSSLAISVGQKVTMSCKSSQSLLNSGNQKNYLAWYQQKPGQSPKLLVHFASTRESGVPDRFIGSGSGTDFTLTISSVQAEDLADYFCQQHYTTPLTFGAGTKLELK
On to B2, for which the half-maximal effective concentration (EC50) in assay [1] was determined as 0.66 nM; in assay [2], 0.23 nM.
